Experimental data reported in paper doi:10.1101/2023.02.07.527441.

Target: PmScsC-EcDsbA chimera (Proteus mirabilis | E. coli) (UniProt P0AEG4)
Assay: AUC

Work on “PmScsC-EcDsbA chimera (from UniProt P0AEG4 20-208) (enzyme)” yielded a stoichiometry N of 3.
